Data set [1] addresses T1, YTHDF2 YTH domain (UniProt Q9Y5A9 Q9Y5A9:383-553).
T1 sequence: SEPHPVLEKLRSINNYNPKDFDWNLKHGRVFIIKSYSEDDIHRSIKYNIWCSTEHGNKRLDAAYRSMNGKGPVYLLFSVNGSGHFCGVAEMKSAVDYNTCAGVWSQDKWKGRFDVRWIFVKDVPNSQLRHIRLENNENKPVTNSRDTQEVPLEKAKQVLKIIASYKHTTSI
Put plainly: competition; value only in figure; 2 uM protein, 25 nM FAM-m6A-RNA. The settings on record: tags: N-terminal His-tag (pET28a), E. coli BL21(DE3); label: 5'-biotin.

In data set [2] the target is T2, YTHDC1 YTH domain (UniProt Q96MU7 Q96MU7:345-509). The description is as above.
The target in data set [3] is T3, YTHDF3 YTH domain (UniProt Q7Z739 Q7Z739:391-585).
T3 sequence: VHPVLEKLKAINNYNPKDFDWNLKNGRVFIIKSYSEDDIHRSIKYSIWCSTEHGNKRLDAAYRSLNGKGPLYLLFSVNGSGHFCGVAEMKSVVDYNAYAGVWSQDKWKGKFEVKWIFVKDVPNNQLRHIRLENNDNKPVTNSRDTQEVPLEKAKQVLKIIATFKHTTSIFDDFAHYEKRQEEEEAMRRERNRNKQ
The description is as above. To be noted: tags: N-terminal His-tag (pET28a), E. coli BL21(DE3); label: 5'-biotin.

The target in another data set is T4, YTHDC2 YTH domain (UniProt Q9H6S0 Q9H6S0:1285-1424).
T4 sequence: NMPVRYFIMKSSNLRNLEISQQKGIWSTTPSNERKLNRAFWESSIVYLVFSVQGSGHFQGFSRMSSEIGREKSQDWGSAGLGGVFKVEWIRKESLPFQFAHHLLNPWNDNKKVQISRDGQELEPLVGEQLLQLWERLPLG
Put plainly: competition; value only in figure; 10 uM protein, 25 nM FAM-m6A-RNA. The settings on record: tags: N-terminal His-tag (pET28a), E. coli BL21(DE3); label: FAM.

A further data set has as its target FTO (UniProt Q9C0B1 Q9C0B1:1-505). Briefly: FP; value only in figure; 50 mM borate pH 7.5. The settings on record: tags: His-tag (Ni resin purified), E. coli BL21(DE3); label: 5'-FAM.
In a further data set the target is T5, YTHDF1 YTH domain (UniProt Q9BYJ9 Q9BYJ9:375-552).
T5 sequence: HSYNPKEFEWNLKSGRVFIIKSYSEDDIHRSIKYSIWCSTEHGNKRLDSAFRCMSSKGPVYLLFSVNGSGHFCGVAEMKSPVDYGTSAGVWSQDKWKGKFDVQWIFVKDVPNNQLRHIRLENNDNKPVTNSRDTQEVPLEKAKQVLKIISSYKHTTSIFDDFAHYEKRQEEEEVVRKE
Put plainly: FP; 25 mM Tris-HCl pH 7.5, 150 mM NaCl, 25 C. The settings on record: tags: N-terminal His-tag (pET28a), E. coli BL21(DE3); label: 5'-FAM. How it is done: (§1) Fluorescence polarization (FP) experiments were performed following the previously reported FP assay conditions for FAM-labeled RNA and YTH domains. Briefly, experiments were conducted in the binding buffer containing 25 mM Tris-HCl, pH 7.5, and 150 mM NaCl[50]. The same binding buffer was used in this study unless otherwise specified. RNA samples were diluted to 50 nM from the stock solutions by the binding buffer. YTH domain proteins were thawed, buffer exchanged into the binding buffer at 4° C. using the 10 kDa-cutoff concentrators (Sigma-Aldrich), and adjusted to 2× of the highest concentration used in the binding assay. […] RNase inhibitor (SUPERaseIn, Invitrogen) was added. 40 L protein solutions with various concentrations were prepared by serial dilution using the binding buffer. Subsequently, we added 40 L diluted RNA into each 40 L protein solution, mixed, and incubated at room temperature for 30 minutes. The final concentration of FAM-m⁶A-RNA or FAM-A-RNA was constant at 25 nM, and the YTH-domain protein concentrations varied from 10 nM to 24 μM. […] After incubation, samples were transferred to a black polypropylene 384-well round-bottom plate (Cellvis) and FP was measured on a Synergy™ Neo2 Multimode Microplate Reader at the wavelength of 485/20 nm for excitation and 528/20 nm for emission at 25° C.

Data set [4] concerns the target T2, YTHDC1 YTH domain. Briefly: EMSA; 20 nM protein, 25 nM RNA, 10 mM HEPES, 50 mM KCl, 1 mM EDTA; complex inhibited by N-7. In general terms: A gel shift assay detects complexes by their altered migration in electrophoresis.
The target of data set [5] is T1, YTHDF2 YTH domain. Put plainly: FP; value only in figure; 25 mM Tris-HCl pH 7.5, 150 mM NaCl. The settings on record: tags: N-terminal His-tag (pET28a), E. coli BL21(DE3); label: 5'-FAM. On the procedure: as §1
For data set [6], the target named is T3, YTHDF3 YTH domain. The description is as above. The settings on record: tags: N-terminal His-tag (pET28a), E. coli BL21(DE3); label: 5'-FAM. On the procedure: as §1

FTO, sequence (Q9C0B1 whole entry, the tested form may be a part, one chain of several): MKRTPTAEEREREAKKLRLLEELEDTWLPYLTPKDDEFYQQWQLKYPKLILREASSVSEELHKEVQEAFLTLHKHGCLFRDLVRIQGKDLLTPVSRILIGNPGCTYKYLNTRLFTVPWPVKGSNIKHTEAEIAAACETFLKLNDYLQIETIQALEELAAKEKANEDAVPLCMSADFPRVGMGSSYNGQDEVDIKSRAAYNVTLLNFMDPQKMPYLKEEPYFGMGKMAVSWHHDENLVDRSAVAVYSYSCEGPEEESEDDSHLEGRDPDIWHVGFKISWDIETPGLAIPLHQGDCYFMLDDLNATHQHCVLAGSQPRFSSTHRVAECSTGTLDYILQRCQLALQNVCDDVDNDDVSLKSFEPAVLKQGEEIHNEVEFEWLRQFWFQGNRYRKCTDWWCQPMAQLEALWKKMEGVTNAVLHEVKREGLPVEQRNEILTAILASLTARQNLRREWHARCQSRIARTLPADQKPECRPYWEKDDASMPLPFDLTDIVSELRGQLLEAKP
Description for YTHDC2 YTH domain: To set up the FP competition assay, we first used the non-fluorescent “m⁶A-RNA” (FIG. 1C) as a positive control inhibitor. […] Samples were transferred onto the 384-well plate and measured on the plate reader as described above. We obtained the dose-response curves by plotting the FP values against concentrations of inhibitors. The inhibitory curves and IC₅₀ values were obtained using the “Dose-response Inhibition” model in GraphPad Prism6.0™.

In the case of GAACCGGACUGUCUUA (ssRNA, m6A at position 8) [m6A-RNA (non-fluorescent)], the binding result with YTHDF2 YTH domain [1], in the data set with YTHDC1 YTH domain [2], in the data set with YTHDF3 YTH domain [3] and in the data set with YTHDC2 YTH domain was “binds” each time.

For orientation: Kd means the equilibrium constant for the complex coming apart. For the molecule GAACCGGACUGUCUUA (ssRNA, m6A at position 8) [FAM-m6A-RNA], the binding result with FTO, in the data set with YTHDC1 YTH domain [4], with YTHDF2 YTH domain [5] and with YTHDF3 YTH domain [6] was “binds” in each case. Moreover, the dissociation constant Kd with YTHDF1 YTH domain stood at 0.8 µM.

These data come from patent publication US20250144104, “DISCOVERY OF A NEW INHIBITOR FOR THE YTH DOMAIN-CONTAINING M6A RNA READERS” (The Trustees of Boston College, published 2025).
